Experimental data from patent publication US20240355418A1, “MULTIPLEX, TEMPORALLY RESOLVED MOLECULAR SIGNAL RECORDER AND RELATED METHODS” (University of Washington, priority 2021, published 2024).

Assays:
[1] = test system: HEK293T and monoclonal lineage tracing cell line (iPE2(+) LT(+)); assay: Cell doubling time with or without Doxycycline; type: cell-based
Text: (A). Cell doubling times measured for HEK293T and the monoclonal lineage tracing cell line (iPE2(+) LT(+)), with or without Doxycycline (Dox). […] P values were obtained using the two-tailed Student's t-test with Bonferroni correction: only *P<0.05 are shown. The center and error bars are mean and standard deviations, respectively, from n=3 independent experiments.

[2] = test system: PE2(+) 3N-TAPE-1-pegRNA(+) HEK293T; assay: Editing and recovery of 12× and 20×TAPE-1 arrays, 40 days, PacBio sequencing; type: cell-based; conditions: 40 days culture
Text: To evaluate the extent to which such issues might be limiting in practice, a synthetic minisatellite in the form of 12 or 20 repeats of the 14-bp TAPE-1 monomer was generated. 12×TAPE-1 was synthesised as single-stranded DNA (IDT) and 20×TAPE-1 as a plasmid (GenScript). PCR amplicons of each array were cloned into the piggyBAC vector via Gibson assembly. Of note, cloned constructs were used “as is”, even though it is possible that some degree of variation in repeat number was already present (FIG. 11A-11B). […] PCR amplification of TAPE-1 was followed by standard library construction and sequencing on the Pacific Bioscience Sequel platform to obtain circular consensus sequencing (CCS) reads. […]
CCS reads were grouped within each replicate based on a degenerate 8-bp barcode (TargetBC), as these presumably derived from the same integration. On average, each TargetBC group had 3.1±3.4 and 3.8±5.7 reads for ˜ 12×TAPE-1 and ˜20×TAPE-1, respectively.
For long-read amplicon sequencing library preparation, a two-step PCR protocol was used: the first PCR reaction (KAPA Robust polymerase) included 1.5 uL of cell lysate, 0.04 to 0.4 uM of forward and reverse primers in a final reaction volume of 25 μL. […] After the first PCR step, products were assessed on 6% TBE-gel and purified using 0.6×AMPure (Beckman Coulter) and added to the second PCR reaction that appended PacBio sample indexes. […]

Molecule	Effect on cell doubling time [1]	Edits per array [2] [edits]	Repeats of TAPE-1 monomers recovered (average) [2] [repeats]
C[C@H]1c2cccc(O)c2C(=O)C2=C(O)[C@]3(O)C(=O)C(C(N)=O)=C(O)[C@@H](N(C)C)[C@@H]3[C@@H](O)[C@@H]21 [Dox, Doxycycline hyclate]	lengthened the cell doubling time		
12×TAPE-1: 12 repeats of the 14-bp TAPE-1 monomer, SEQ ID NO: 118 (nucleic acid) DNA: CACCNNNNNNNNGGATGATGGTGAGCACGTGATGGTGAGCACGTGATGGTGAGCACGTGATGGTGAGCACGTGATGGTGAGCACGTGATGGTGAGCACGTGATGGTGAGCACGTGATGGTGAGCACGTGATGGTGAGCACGTGATGGTGAGCACGTGATGGTGAGCACGTGATGGTGAGCACGTGATGGTGAGCGCTTTAAGGC		4.5±1.3	8.4±3.3
